Measured values published in the RNAGym collection of RNA variant scans (doi:10.1073/pnas.2313332121).
This sample holds only a part of the variants without activity.

B1: TPR 5TU (parent)
chain: GGAUCUUCUCGAUCUAACAAAAAAGACAAAUCUGCCACAAAGCUUGAGAGCAUCUUCGGAUGCAGAGGCGGCAGCCUUCGGUGGCGCGAUAGCGCCAACGUUCUCAACUAUGACACGCAAAACGCGUGCUCCGUUGAAUGGAGUUUAUCAUG

Variants of: B1
Test: polymerase ribozyme fitness, log enrichment relative to wild type (log ratio); higher = more active; in vitro selection for triplet polymerase activity
Procedure, shortened: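 Each subunit of a heterodimeric triplet polymerase ribozyme was mutagenized into a library by PCR, transcribed, and subjected to one round of in vitro selection, run in triplicate. Libraries were annealed with a biotinylated primer, the partner subunit and triplets, incubated frozen at −7 °C, and extended constructs were gel-excised, captured on streptavidin beads and recovered by RT-PCR. Input and output libraries were sequenced on Illumina, keeping genotypes with ≥10 input reads and ≥1 read per output. Fitness is log base 2 of genotype enrichment divided by wild-type enrichment, from inverse-variance-weighted replicate averages.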
With A41C G152U the “polymerase ribozyme fitness (log ratio)” value was -2.69. With C35G U55G G81A A98G U102A the “polymerase ribozyme fitness (log ratio)” value was at most -4.2. With G83U U127A the “polymerase ribozyme fitness (log ratio)” value was -3.18. In the case of C93U C125G, the “polymerase ribozyme fitness (log ratio)” value is reported as -1.79. In the case of G42U A60G U61G C96G C99G C125U A150C, the “polymerase ribozyme fitness (log ratio)” value is reported as at most -4.2. With C85A C99A the “polymerase ribozyme fitness (log ratio)” value was -2.8. With C85U U148A the “polymerase ribozyme fitness (log ratio)” value was -3.08. With A22U A40U G42C C75A U90G the “polymerase ribozyme fitness (log ratio)” value was at most -4.2. With A52C U148A the “polymerase ribozyme fitness (log ratio)” value was -4.18. In the case of A41C G83A C116A, the “polymerase ribozyme fitness (log ratio)” value is reported as -0.205. In the case of U61A A73G G80U, the “polymerase ribozyme fitness (log ratio)” value is reported as at most -4.2. In the case of U15G A22C A60G A73U C76G C103A A122U U151A, the “polymerase ribozyme fitness (log ratio)” value is reported as at most -4.2. With C35A C57U C93G U134A U139A the “polymerase ribozyme fitness (log ratio)” value was at most -4.2. With G83A G128A the “polymerase ribozyme fitness (log ratio)” value was -3.83. In the case of A12G C75U C93U U144C, the “polymerase ribozyme fitness (log ratio)” value is reported as -0.389. For U9G U77C C85A C108U A120C G141C, the “polymerase ribozyme fitness (log ratio)” value was at most -4.2. In the case of A37C A64U A66G C85A A107G, the “polymerase ribozyme fitness (log ratio)” value is reported as at most -4.2. In the case of A19C C43U C51G G71A C87G C105U C108U G141C, the “polymerase ribozyme fitness (log ratio)” value is reported as at most -4.2. In the case of A21U U33A A40U G58A C85G A98C A106U G126C, the “polymerase ribozyme fitness (log ratio)” value is reported as at most -4.2. In the case of G50A U78G, the “polymerase ribozyme fitness (log ratio)” value is reported as -4.06. With U61A C85U the “polymerase ribozyme fitness (log ratio)” value was -1.28. In the case of U56A C75U G143A, the “polymerase ribozyme fitness (log ratio)” value is reported as -0.711. In the case of C72U U90C C93A U104A U127A, the “polymerase ribozyme fitness (log ratio)” value is reported as at most -4.2. In the case of C36A A122U G126A G136C, the “polymerase ribozyme fitness (log ratio)” value is reported as at most -4.2. With A40C C125A the “polymerase ribozyme fitness (log ratio)” value was -0.0259. For A12U U82C G86C, the “polymerase ribozyme fitness (log ratio)” value was at most -4.2. With C14A A19G A26U C79A G83U A119C the “polymerase ribozyme fitness (log ratio)” value was at most -4.2. For C69A G83A G143U, the “polymerase ribozyme fitness (log ratio)” value was -3.59. In the case of G67C G71C G86A A107U A121U U144G, the “polymerase ribozyme fitness (log ratio)” value is reported as at most -4.2. For A66G C105U, the “polymerase ribozyme fitness (log ratio)” value was -3.63. For U13G G84A G143U, the “polymerase ribozyme fitness (log ratio)” value was -3.44. In the case of A52G G84U, the “polymerase ribozyme fitness (log ratio)” value is reported as -1.32. In the case of A41G A49U G59U C85A C105U A106G A121U U134C, the “polymerase ribozyme fitness (log ratio)” value is reported as at most -4.2. For C36A A98U A107U C131A U146G, the “polymerase ribozyme fitness (log ratio)” value was at most -4.2. In the case of C18G U45A A121U, the “polymerase ribozyme fitness (log ratio)” value is reported as -2.73. For U77C G94C, the “polymerase ribozyme fitness (log ratio)” value was -3.48. In the case of C54U U82C C95A G141U, the “polymerase ribozyme fitness (log ratio)” value is reported as -2.99. For C93U C95U C149A, the “polymerase ribozyme fitness (log ratio)” value was at most -4.2. With A37G A39C C87A C116U G136A the “polymerase ribozyme fitness (log ratio)” value was at most -4.2. For A26U C43U U53A G100C, the “polymerase ribozyme fitness (log ratio)” value was at most -4.2. In the case of C93A A110U, the “polymerase ribozyme fitness (log ratio)” value is reported as -3.99. In the case of U33G G46A A49C U77C A98U C99U G152U, the “polymerase ribozyme fitness (log ratio)” value is reported as at most -4.2. For C8U A40C A41G G50A U56A C93A, the “polymerase ribozyme fitness (log ratio)” value was at most -4.2. For C93U C114U G141A, the “polymerase ribozyme fitness (log ratio)” value was at most -4.2. With A17U A28C C87A the “polymerase ribozyme fitness (log ratio)” value was at most -4.2. For U44A C85U, the “polymerase ribozyme fitness (log ratio)” value was -4.17. For A30U C76A, the “polymerase ribozyme fitness (log ratio)” value was -3.82. With A3G G71U C96A A107G C116U C125G the “polymerase ribozyme fitness (log ratio)” value was at most -4.2. With A49G G74C U101G G112C A122U U127A A138C the “polymerase ribozyme fitness (log ratio)” value was at most -4.2. In the case of C10U G94A U148G, the “polymerase ribozyme fitness (log ratio)” value is reported as at most -4.2. In the case of C85U G124U, the “polymerase ribozyme fitness (log ratio)” value is reported as -0.801. With U13C C27U G50C G92C the “polymerase ribozyme fitness (log ratio)” value was -4.02. In the case of C87G A89U, the “polymerase ribozyme fitness (log ratio)” value is reported as at most -4.2. In the case of C103G U151A, the “polymerase ribozyme fitness (log ratio)” value is reported as at most -4.2. With A41C G80C the “polymerase ribozyme fitness (log ratio)” value was -4.11. For C69A A73G, the “polymerase ribozyme fitness (log ratio)” value was -2.98. For A26C G92C U104C C108U A115C, the “polymerase ribozyme fitness (log ratio)” value was at most -4.2. In the case of A16G G94A U104A, the “polymerase ribozyme fitness (log ratio)” value is reported as -0.709. In the case of A19U G141A, the “polymerase ribozyme fitness (log ratio)” value is reported as 0.304. With U7A A21U G25U U44A A49C C54A C63G C85U G86U C99G the “polymerase ribozyme fitness (log ratio)” value was at most -4.2. For A66C C69U C96U, the “polymerase ribozyme fitness (log ratio)” value was at most -4.2. For C76U C105G, the “polymerase ribozyme fitness (log ratio)” value was -3.71. In the case of A17U G92A, the “polymerase ribozyme fitness (log ratio)” value is reported as -2.84. With A49U U56A C99G A147G the “polymerase ribozyme fitness (log ratio)” value was at most -4.2. In the case of C8A U15G C18U G58C C96G, the “polymerase ribozyme fitness (log ratio)” value is reported as -3.95. For C35G G62A G68A C69G G71C C72A A73G G74C A91C C114U C132U, the “polymerase ribozyme fitness (log ratio)” value was at most -4.2. For C96A C105G C125A, the “polymerase ribozyme fitness (log ratio)” value was -2.29. For G50U U56A C114U, the “polymerase ribozyme fitness (log ratio)” value was -2.18. For G11C C38U C85G U135C, the “polymerase ribozyme fitness (log ratio)” value was at most -4.2. In the case of U13G A21U C32G A73U U78A C87A C118A, the “polymerase ribozyme fitness (log ratio)” value is reported as at most -4.2. With A49C A66C G81C G83U C99U U101G C108U the “polymerase ribozyme fitness (log ratio)” value was at most -4.2. With C8U C10G A29U C85U C116U the “polymerase ribozyme fitness (log ratio)” value was at most -4.2. With G92U G141C the “polymerase ribozyme fitness (log ratio)” value was -1.87. For A16C A37U G58A G80U C85G C93G A150G, the “polymerase ribozyme fitness (log ratio)” value was at most -4.2. In the case of A22U A41G C93U A107U C108U C129U G133U A142C, the “polymerase ribozyme fitness (log ratio)” value is reported as at most -4.2. With A37G A52G U55A U56A C85U C103U U145A the “polymerase ribozyme fitness (log ratio)” value was -3.09. With G58C G80A C95U U127G C149G the “polymerase ribozyme fitness (log ratio)” value was at most -4.2. In the case of A47C G48U C76G C96U A113C, the “polymerase ribozyme fitness (log ratio)” value is reported as at most -4.2. In the case of U55A G84A G86A C93U C105U, the “polymerase ribozyme fitness (log ratio)” value is reported as -1.1. With C125U G126A the “polymerase ribozyme fitness (log ratio)” value was -3.14. With A21U C87U the “polymerase ribozyme fitness (log ratio)” value was -0.254. With C18U A37C G68A A107U C125A G140C the “polymerase ribozyme fitness (log ratio)” value was at most -4.2. In the case of A21U A40G A60G C96G U146G, the “polymerase ribozyme fitness (log ratio)” value is reported as -3.99. With C96A G126C the “polymerase ribozyme fitness (log ratio)” value was -0.953.
